Data on two substances can be found in PMC2676118.

Holding throughout (test): AUC
For assay [1], the target named is FGF9^Eks, purified recombinant FGF9 with the Eks mutation N143T (UniProt P54130).
Assay [2] deals with FGF9^WT, purified recombinant wild type FGF9 (UniProt P54130).
Assay [3] shares this target. This is another data set of the same source.

Read-outs that look alike come from different tables or passages of the source.

As to “FGF9^Eks, purified recombinant FGF9 with the Eks mutation N143T (from UniProt P54130 4-208) (natural protein)”, in assay [1], the Ka was 119000 M⁻¹ and the stoichiometry N came out at 2.
As for “FGF9^WT, purified recombinant wild type FGF9 (from UniProt P54130 4-208) (natural protein)”, in assay [2], the stoichiometry N came out at 2. In assay [3], the Ka amounted to 1.04e+07 M⁻¹ and the stoichiometry N worked out at 2.
